In publication PMC13036776, “Structural and Kinetic Basis for the Rational Design of Next-Generation β‑Lactamase Inhibitors” (Journal of Medicinal Chemistry, 2026):

Tested on: O=C(Cc1cccs1)N[C@@H]1C(=O)N2C(C(=O)O)=C(/C=C/c3ccc([N+](=O)[O-])cc3[N+](=O)[O-])CS[C@H]12
Experiment: purified protein
Type: biochemical, Pseudomonas aeruginosa
Conditions: active site, catalytic S64 acylation (acyl-enzyme), pH 7.2

PDC-3 (Pseudomonas-derived cephalosporinase-3, class C β-lactamase AmpC) (Pseudomonas aeruginosa PAO1)
Km (general base K67, R349 anchor): 28 ± 1 µM
Vmax (general base K67, R349 anchor): 82.2 µM/min
kcat (general base K67, R349 anchor): 152 ± 15 s⁻¹
kcat/Km (general base K67, R349 anchor): 5.4e+06 ± 500000 M⁻¹ s⁻¹

PDC-3 (Pseudomonas-derived cephalosporinase-3, class C β-lactamase AmpC) (Pseudomonas aeruginosa PAO1; R376A/T105A)
Km (general base K67): 10.1 ± 1.5 µM
Vmax (general base K67): 55.8 µM/min
kcat (general base K67): 85 ± 3 s⁻¹
kcat/Km (general base K67): 8.4e+06 ± 1.3e+06 M⁻¹ s⁻¹
